Paper PMC2828547, “UIF, a New mRNA Export Adaptor that Works Together with REF/ALY, Requires FACT for Recruitment to mRNA” (Current Biology, 2009)

Target: T1, GST-UAP56 (UniProt Q13838 1-428)
T1 construct: UAP56
Test: pull-down; GST fusion proteins with purified UIF in the presence of RNase; Coomassie staining
Conditions: both partners purified

T1 sequence (Q13838 whole entry): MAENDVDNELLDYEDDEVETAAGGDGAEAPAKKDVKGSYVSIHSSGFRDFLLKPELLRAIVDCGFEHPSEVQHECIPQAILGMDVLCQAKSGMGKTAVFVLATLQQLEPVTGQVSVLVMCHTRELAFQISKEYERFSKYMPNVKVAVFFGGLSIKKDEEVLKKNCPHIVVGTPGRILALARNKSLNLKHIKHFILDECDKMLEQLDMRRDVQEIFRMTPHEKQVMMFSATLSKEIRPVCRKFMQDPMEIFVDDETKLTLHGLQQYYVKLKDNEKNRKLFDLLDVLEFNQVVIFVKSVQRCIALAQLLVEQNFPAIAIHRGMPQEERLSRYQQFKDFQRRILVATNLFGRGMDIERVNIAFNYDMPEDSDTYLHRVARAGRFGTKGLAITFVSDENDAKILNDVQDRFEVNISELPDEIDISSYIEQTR

B1: purified UIF (recombinant) (natural protein, human, UniProt Q96QD9 1-318, looked up)
chain: MNRFGTRLVGATATSSPPPKARSNENLDKIDMSLDDIIKLNRKEGKKQNFPRLNRRLLQQSGAQQFRMRVRWGIQQNSGFGKTSLNRRGRVMPGKRRPNGVITGLAARKTTGIRKGISPMNRPPLSDKNIEQYFPVLKRKANLLRQNEGQRKPVAVLKRPSQLSRKNNIPANFTRSGNKLNHQKDTRQATFLFRRGLKVQAQLNTEQLLDDVVAKRTRQWRTSTTNGGILTVSIDNPGAVQCPVTQKPRLTRTAVPSFLTKREQSDVKKVPKGVPLQFDINSVGKQTGMTLNERFGILKEQRATLTYNKGGSRFVTVG
notes: it may be the GB1-6His-UIF of m18; also called recombinant UIF
  binding result: binds
